# According to patent publication US20210024646A1 (published 2021):
# Residue numbers refer to the chain shown, from its start. Several values for one entry are separate records, joined by “and”; a condition that tells them apart may be missing. Identical values can stand only once.
# B1: mAb002c-VH-QG/VK-SG (antibody, V domains shown)
# VH: QVQLQQPGAELVKPGASVRLSCKASGYTLTSYWMHWVKKRPGQGLEWIGEINPSQGRSNYNEKFKSKATLTVDRSSSTVYMQLGSLTSEDSAVYYCARRGVSGNYFDYWGQGTTLTVSS
# VL: DIKMTQSPSSMYASLGERVTMTCKASQDINTYLSWFQQKPGKSPKTLIYRSNILVSGVPSRFSGSRSGQDYYLTITSLEYEDMGIYYCLQYDEFPYTFGGGTKLELK
# B2: Hu001c-25 (antibody, V domains shown)
# VH: QVQLVQSGAEVKKPGASVKVSCKASGYTFTNYYIYWVRQAPGQRLEWIGWIYPGNLNIKYNEKFKGRVTITADKSASTAYMELSSLRSEDTAVYYCARDDNYAWFAYWGQGTLVTVSS
# VL: DIQMTQSPSSLSASVGDRVTITCKASQDVSTAVAWYQQKPGKSPKLLIYWTNTRHTGVPSRFSGSGSGTDHTLTISSLQPEDFATYYCQQHYSTPFTFGQGTKLEIK
# B3: Hu001c-14 (antibody, V domains shown)
# VH: B2 VH with A24T, I48M, K74T
# VL: B2 VL with S43A
# B4: Hu001c-23 (antibody, V domains shown)
# VH: B2 VH with R38K, A40R, R44G
# VL: B2 VL with S43A
# B5: Hu001c-28 (antibody, V domains shown)
# VH: B2 VH with A24T, R38K, A40R, R44G
# VL: B2 VL
# B6: Hu001c-22 (antibody, V domains shown)
# VH: B2 VH with R38K, A40R
# VL: B2 VL with S43A
# B7: Hu001c-21 (antibody, V domains shown)
# VH: B2 VH
# VL: B2 VL with S43A
# B8: Hu001c-24 (antibody, V domains shown)
# VH: B2 VH with A24T, R38K, A40R, R44G
# VL: B2 VL with S43A
# B9: Hu001c-31 (antibody, V domains shown)
# VH: B2 VH with V68S, I70L
# VL: B2 VL with S43A
# B10: Hu002c-12 (antibody, V domains shown)
# VH: QVQLVQSGAEVKKPGASVKVSCKASGYTLTSYWMHWVRQAPGQGLEWIGEINPSQGRSNYNEKFKSKVTLTVDRSTSTVYMELSSLRSEDTAVYYCARRGVSGNYFDYWGQGTLVTVSS
# VL: DIQMTQSPSSLSASVGDRVTITCKASQDINTYLSWFQQKPGKSPKSLIYRSNILVSGVPSRFSGSGSGQDYTLTISSLQPEDFAIYYCLQYDEFPYTFGGGTKLEI
# B11: Hu001c-32 (antibody, V domains shown)
# VH: B2 VH with R38K, A40R, V68S, I70L
# VL: B2 VL with S43A
# B12: Hu002c-14 (antibody, V domains shown)
# VH: B10 VH with R38K, Q39K
# VL: DIQMTQSPSSLSASVGDRVTITCKASQDINTYLSWFQQKPGKAPKSLIYRSNILVSGVPSRFSGSGSGQDYTLTISSLQPEDFATYYCLQYDEFPYTFGQGTKLEIK
# B13: Hu002c-11 (antibody, V domains shown)
# VH: B10 VH
# VL: B12 VL with A43S, Q100G
# B14: Hu001c-30 (antibody, V domains shown)
# VH: B2 VH with R38K, A40R, V68S, I70L
# VL: B2 VL with S43A, H71F
# Biological target: T1, CD73 on the surface of human tumor cells (human, UniProt P21589 27-549)
# T1 chain: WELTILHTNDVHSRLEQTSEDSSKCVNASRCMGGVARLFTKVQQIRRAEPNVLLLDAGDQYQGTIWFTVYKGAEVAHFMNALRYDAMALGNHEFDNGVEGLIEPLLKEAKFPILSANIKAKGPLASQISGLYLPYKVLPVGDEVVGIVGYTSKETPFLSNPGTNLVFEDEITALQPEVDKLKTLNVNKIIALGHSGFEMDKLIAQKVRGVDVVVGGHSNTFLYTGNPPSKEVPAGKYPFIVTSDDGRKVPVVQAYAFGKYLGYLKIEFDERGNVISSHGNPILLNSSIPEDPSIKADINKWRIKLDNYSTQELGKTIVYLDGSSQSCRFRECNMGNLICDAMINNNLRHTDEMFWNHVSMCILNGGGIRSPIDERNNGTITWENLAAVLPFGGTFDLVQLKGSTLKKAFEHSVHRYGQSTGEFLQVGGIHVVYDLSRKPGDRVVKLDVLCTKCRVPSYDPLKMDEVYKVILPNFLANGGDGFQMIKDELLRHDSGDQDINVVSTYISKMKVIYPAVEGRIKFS
# Assay: inhibition of cell-surface CD73 enzyme activity; left panel
row,Binder,IC50 [nM]
1,B1,0.448

# Biological target: T2, extracellular domain of human CD73 protein (CD73-ECD), C-terminus polyhistidine-tagged (UniProt P21589 27-547)
# T2 chain: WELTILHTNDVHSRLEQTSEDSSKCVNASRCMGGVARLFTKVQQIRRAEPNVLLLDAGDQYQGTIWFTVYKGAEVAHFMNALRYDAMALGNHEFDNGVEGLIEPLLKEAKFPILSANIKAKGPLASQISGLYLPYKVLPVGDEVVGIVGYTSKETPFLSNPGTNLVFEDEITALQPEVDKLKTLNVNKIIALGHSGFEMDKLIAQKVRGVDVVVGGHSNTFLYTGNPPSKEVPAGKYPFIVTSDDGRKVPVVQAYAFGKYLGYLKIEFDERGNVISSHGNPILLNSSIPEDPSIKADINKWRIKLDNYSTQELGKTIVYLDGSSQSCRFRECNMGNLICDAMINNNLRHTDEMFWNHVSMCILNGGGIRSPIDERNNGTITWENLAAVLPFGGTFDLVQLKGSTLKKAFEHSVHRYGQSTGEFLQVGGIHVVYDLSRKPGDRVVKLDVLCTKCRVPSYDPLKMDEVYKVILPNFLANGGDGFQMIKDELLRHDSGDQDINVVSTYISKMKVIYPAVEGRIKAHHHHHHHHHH
# Assay: enzyme inhibition; left table
row,Binder,IC50 [nM]
1,B2,0.3
2,B3,0.06
3,B4,0.03
4,B5,0.03
5,B6,0.03
6,B7,0.12
7,B8,0.02

# Biological target: T3, Carbon-terminal polyhistidine-labeled recombinant cynomolgus monkey CD73 enzyme (cynomolgus monkey, UniProt A0A2K5V5U7 1-547)
# T3 chain: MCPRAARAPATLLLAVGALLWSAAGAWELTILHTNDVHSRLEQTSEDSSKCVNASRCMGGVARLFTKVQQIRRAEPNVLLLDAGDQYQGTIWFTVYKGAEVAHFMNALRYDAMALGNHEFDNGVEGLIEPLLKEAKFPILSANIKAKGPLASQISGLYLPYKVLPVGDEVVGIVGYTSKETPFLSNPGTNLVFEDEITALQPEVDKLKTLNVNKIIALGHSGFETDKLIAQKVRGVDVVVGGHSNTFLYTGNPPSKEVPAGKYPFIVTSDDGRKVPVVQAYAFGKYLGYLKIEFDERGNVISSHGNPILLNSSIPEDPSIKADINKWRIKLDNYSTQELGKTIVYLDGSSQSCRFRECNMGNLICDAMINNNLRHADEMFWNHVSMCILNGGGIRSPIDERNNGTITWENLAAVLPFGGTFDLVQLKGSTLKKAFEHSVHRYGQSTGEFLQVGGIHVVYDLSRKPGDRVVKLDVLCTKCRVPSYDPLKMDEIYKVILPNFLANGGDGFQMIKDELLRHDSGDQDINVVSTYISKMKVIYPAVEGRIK
# Assay: enzyme inhibition; right table
row,Binder,IC50 [nM]
1,B9,0.28
2,B3,0.1
3,B4,0.07
4,B1,0.055
5,B8,0.04
6,B10,0.058
7,B11,0.11
8,B12,0.056
9,B13,0.065
10,B14,0.132

# Biological target: T1, CD73 on the surface of human tumor cells
# Assay: FACS; NCI-H1299 cells, right table
row,Binder,EC50 [nM]
1,B1,0.573
2,B10,0.82
3,B12,0.822
4,B13,0.774

# Biological target: T1, CD73 on the surface of human tumor cells
# Assay: FACS; NCI-H1299 cells, left table
row,Binder,EC50 [nM]
1,B1,0.73

# Biological target: T1, CD73 on the surface of human tumor cells
# Assay: FACS; NCI-H1299 cells, right table
# Remark: another data set of the same source
row,Binder,EC50 [nM]
1,B9,1.24
2,B3,1.16
3,B4,1.48
4,B11,1.62
5,B14,1.61

# Biological target: T2, extracellular domain of human CD73 …
# Assay: enzyme inhibition; right table
row,Binder,IC50 [nM]
1,B9,0.12
2,B3,0.06
3,B4,0.04
4,B8,0.03
5,B10,0.057
6,B11,0.07
7,B12,0.058
8,B13,0.06
9,B14,0.128

# Biological target: T1, CD73 on the surface of human tumor cells
# Assay: FACS; MDA-MB-231 cells, left table
row,Binder,EC50 [nM]
1,B1,0.557

# Biological target: T1, CD73 on the surface of human tumor cells
# Assay: inhibition of cell-surface CD73 enzyme activity; right panel
row,Binder,IC50 [nM]
1,B1,0.429
2,B10,0.498
3,B12,0.437
4,B13,0.445

# Biological target: T3, Carbon-terminal polyhistidine-labeled …
# Assay: enzyme inhibition; left table
row,Binder,IC50 [nM]
1,B2,0.34
2,B3,0.11
3,B4,0.07
4,B5,0.03
5,B1,0.044
6,B6,0.08
7,B7,0.37
8,B8,0.04

# Biological target: T1, CD73 on the surface of human tumor cells
# Assay: FACS; MDA-MB-231 cells, right table
row,Binder,EC50 [nM]
1,B9,0.514
2,B3,0.626
3,B4,0.593
4,B11,0.608
5,B14,0.695

# Biological target: T1, CD73 on the surface of human tumor cells
# Assay: FACS; NCI-H1299 cells, left table
# Remark: another data set of the same source
row,Binder,EC50 [nM]
1,B3,1.33
2,B4,1.3
3,B5,1.41
4,B6,1.42
5,B8,1.28

# Biological target: T1, CD73 on the surface of human tumor cells
# Assay: FACS; MDA-MB-231 cells, right table
# Remark: another data set of the same source
row,Binder,EC50 [nM]
1,B1,0.557
2,B10,0.715
3,B12,0.642
4,B13,0.693

# Biological target: T2, extracellular domain of human CD73 …
# Assay: ELISA
row,Binder,EC50
1,B9,0.109 nM
2,B2,0.033 nM
3,B3,0.108 nM
4,B4,0.033 nM
5,B5,0.037 nM
6,B1,0.096 nM and 0.103 nM
7,B6,0.032 nM
8,B7,0.02 nM
9,B8,0.026 nM
10,B10,0.083 nM
11,B11,0.107 nM
12,B12,0.101 nM
13,B13,0.095 nM
14,B14,0.139 nM

# Biological target: T1, CD73 on the surface of human tumor cells
# Assay: FACS; MDA-MB-231 cells, left table
# Remark: another data set of the same source
row,Binder,EC50 [nM]
1,B2,0.435
2,B3,0.449
3,B4,0.4
4,B5,0.446
5,B6,0.522
6,B7,0.205
7,B8,0.432
